The target in this experiment is Cetux-probe (cetuximab conjugated with the C-probe). In words: cell-based or functional assay.

As to “papain (from UniProt P00784 134-345) (enzyme)”, the fold increase of Cetux-probe fluorescence on enzyme treatment (37°C, 1 hour) was found to be 13.5 fold.
In the case of cathepsin B (enzyme) it was 24 fold.

The values above are taken from patent publication EP4782837A1.
